Reference: PMC3342945

Key:
[1] = biological target: T1, membrane IL-6R on BAF/gp130/IL6R/TNF cells (Homo sapiens) (UniProt P08887); assay: flow cytometry
T1 sequence: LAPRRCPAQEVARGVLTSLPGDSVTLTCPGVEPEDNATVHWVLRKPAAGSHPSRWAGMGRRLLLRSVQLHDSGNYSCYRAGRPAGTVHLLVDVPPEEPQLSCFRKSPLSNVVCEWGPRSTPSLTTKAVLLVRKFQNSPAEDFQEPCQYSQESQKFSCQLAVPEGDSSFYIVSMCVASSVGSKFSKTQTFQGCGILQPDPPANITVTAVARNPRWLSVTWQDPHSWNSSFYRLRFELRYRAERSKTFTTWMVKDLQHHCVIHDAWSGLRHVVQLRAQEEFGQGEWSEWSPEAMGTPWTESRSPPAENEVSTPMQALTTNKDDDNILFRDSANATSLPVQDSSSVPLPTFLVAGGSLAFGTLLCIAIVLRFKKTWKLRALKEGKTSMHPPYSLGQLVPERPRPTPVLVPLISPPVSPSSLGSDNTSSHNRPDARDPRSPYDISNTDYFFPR

[2] = biological target: T2, Hyper-IL-6 (IL-6 and sIL-6R fusion, flexible linker) (Homo sapiens, UniProt P08887 113-323+P05231:29-212, internal_change); assay: filter binding
[3] = biological target: T2, Hyper-IL-6 (IL-6 and sIL-6R fusion, …); assay: filter binding; remark: listed apart in the source

GGGGAGGCUGUGGUGAGGG [AIR-3A Atto647N]
Kd [1]: 8.5 nM

GGGGAGGCUGUGGUGAGUG (ssRNA) [G18U]
binding result [2]: no binding

GGGGAGGCUGUGGUGAUUG (ssRNA) [G17U/G18U]
binding result [2]: no binding

GGGGAGGCUGUGGUGAGGG (structured_RNA) [AIR-3A]
Kd [3]: 60.4 ± 16 nM

GGGGAGGCUGUGGUGAUGG (ssRNA) [G17U]
binding result [2]: no binding
